Columns and labels:
[1] = biological target: T1, Estrogen receptor alpha (ERα) (human, UniProt P03372 1-595); experiment: ITC; ITC: 10 mM Tris-HCl pH 8.0, 25 °C, 1 µM ERα in cell, 10 µM RNA in syringe; ELISA: 100 nM biotinylated ERaptR4, 2 h; western blot: 1 µM ERaptR4; conditions: chain copies: 2; hairpin
[2] = biological target: T1, Estrogen receptor alpha (ERα); experiment: as above; conditions: chain copies: 2; hairpin; remark: listed apart in the source

T1 sequence (P03372 whole entry): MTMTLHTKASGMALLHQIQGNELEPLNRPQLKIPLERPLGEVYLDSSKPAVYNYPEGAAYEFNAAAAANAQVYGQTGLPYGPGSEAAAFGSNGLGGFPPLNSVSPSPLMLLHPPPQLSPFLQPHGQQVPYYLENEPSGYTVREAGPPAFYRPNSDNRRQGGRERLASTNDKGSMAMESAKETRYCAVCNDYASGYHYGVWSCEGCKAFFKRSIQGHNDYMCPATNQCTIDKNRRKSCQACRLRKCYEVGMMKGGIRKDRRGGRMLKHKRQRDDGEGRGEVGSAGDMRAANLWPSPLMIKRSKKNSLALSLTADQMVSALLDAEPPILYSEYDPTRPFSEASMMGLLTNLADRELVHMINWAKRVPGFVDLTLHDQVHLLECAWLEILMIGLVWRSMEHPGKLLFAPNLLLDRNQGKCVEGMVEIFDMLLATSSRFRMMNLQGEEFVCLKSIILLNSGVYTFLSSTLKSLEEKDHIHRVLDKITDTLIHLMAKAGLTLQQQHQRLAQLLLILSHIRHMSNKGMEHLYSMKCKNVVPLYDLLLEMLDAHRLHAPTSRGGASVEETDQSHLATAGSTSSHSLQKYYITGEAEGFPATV

Binder	Ka [1] [M⁻¹]	Ka [2] [M⁻¹]
AGGGUCAGGGCCACCUG (structured_RNA) [ERaptR3]	5.24e+07	
GCGGUCACCGUCACCUC (structured_RNA) [ERaptR15]	9.25e+07	
CAGGUCAAGGCGAUCUU (structured_RNA) [ERaptR13]	8.96e+07	
GGGGUCAAGGUCACCGC (structured_RNA) [ERaptR12]	8.2e+07	
GAGGUCACUGAGACCAU (structured_RNA) [ERaptR1]	9.2e+07	
UUGGUCAGGCUGAUCUC (structured_RNA) [ERaptR16]	9.4e+07	
GGGGUCAAGGUGACCCC (structured_RNA) [ERaptR4]		1.02e+08
CCAGGUCACAGUGACCUG (structured_RNA) [ERaptR2]	7.6e+07	
CGGGUCAGGGUGACCUC (structured_RNA) [ERaptR8]	8.88e+07	
AAGGUCACGGUGGCCAC (structured_RNA) [ERaptR5]	6.82e+07	
GGGGUCAGCUGUGCCCCG (structured_RNA) [ERaptR18]	9.91e+07	
CGGGUCACGAUGCCCUA (structured_RNA) [ERaptR7]	4.82e+07	
CCAGUCAGUCUGAUUAU (structured_RNA) [ERaptR14]	7.42e+07	
UAGGUCAGUAAGACCUC (structured_RNA) [ERaptR6]	9.46e+07	
AGGGUCAUGGUGACCCU (structured_RNA) [ERaptR11]	8.02e+07	
UGGUCAGGCUGGUCUCA (structured_RNA) [ERaptR9]	9.46e+07	
UUGGUCAAGCUGCCCUC (structured_RNA) [ERaptR17]	1.26e+08	
